Experimental data as given in paper PMC9335864.

Biological target: N-terminal Nanoluciferase-tagged p97-N domain (human)
Assay: FRET or BRET; NanoBRET in p47-knockout U2OS cells: Nanoluciferase-p97-N donor, p47-UBX-HaloTag acceptor, co-transfected with antibody-fragment or p47-FLAG plasmids; compared with scFv-RNase and scFab-RNase controls

N-terminal Nanoluciferase-tagged p97-N domain (human), sequence (P55072 2-806): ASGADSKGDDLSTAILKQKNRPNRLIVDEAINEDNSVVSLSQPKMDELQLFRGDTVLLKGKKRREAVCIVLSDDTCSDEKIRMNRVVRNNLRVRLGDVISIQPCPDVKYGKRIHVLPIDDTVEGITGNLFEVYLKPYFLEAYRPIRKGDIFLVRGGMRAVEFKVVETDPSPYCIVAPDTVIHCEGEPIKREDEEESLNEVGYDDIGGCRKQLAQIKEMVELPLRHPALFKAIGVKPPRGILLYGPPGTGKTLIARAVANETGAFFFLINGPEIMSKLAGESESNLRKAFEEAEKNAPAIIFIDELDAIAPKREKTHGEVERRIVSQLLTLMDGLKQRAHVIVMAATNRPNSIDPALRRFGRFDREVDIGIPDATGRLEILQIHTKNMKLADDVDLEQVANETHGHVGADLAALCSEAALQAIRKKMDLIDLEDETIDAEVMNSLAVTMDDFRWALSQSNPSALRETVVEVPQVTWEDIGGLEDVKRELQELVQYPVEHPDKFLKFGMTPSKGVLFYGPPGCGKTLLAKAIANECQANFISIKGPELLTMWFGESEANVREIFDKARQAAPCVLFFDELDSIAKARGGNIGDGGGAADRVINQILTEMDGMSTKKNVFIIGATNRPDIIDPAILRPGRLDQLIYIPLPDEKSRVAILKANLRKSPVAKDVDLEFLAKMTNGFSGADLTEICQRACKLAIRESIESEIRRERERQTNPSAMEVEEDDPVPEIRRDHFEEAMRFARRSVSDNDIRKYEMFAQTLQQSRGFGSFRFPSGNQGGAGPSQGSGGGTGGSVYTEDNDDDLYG

B1: p47-FLAG (natural protein)
chain: MAAERQEALREFVAVTGAEEDRARFFLESAGWDLQIALASFYEDGGDEDIVTISQATPSSVSRGTAPSDNRVTSFRDLIHDQDEDEEEEEGQRFYAGGSERSGQQIVGPPRKKSPNELVDDLFKGAKEHGAVAVERVTKSPGETSKPRPFAGGGYRLGAAPEEESAYVAGEKRQHSSQDVHVVLKLWKSGFSLDNGELRSYQDPSNAQFLESIRRGEVPAELRRLAHGGQVNLDMEDHRDEDFVKPKGAFKAFTGEGQKLGSTAPQVLSTSSPAQQAENEAKASSSILIDESEPTTNIQIRLADGGRLVQKFNHSHRISDIRLFIVDARPAMAATSFILMTTFPNKELADESQTLKEANLLNAVIVQRLT
B1 was tested. Which reduction of the BRET ratio of the p97-N/p47-UBX pair did it give?
The reduction of the BRET ratio of the p97-N/p47-UBX pair was 15%.
